This series concerns the molecule itself. The experiment in a line: FRET or BRET; in vitro intermolecular FRET; equimolar mixture of the CFP-X-CFP and YFP-X-YFP fusions, total protein 10 nM, kinetic buffer (50 mM Tris-HCl pH 7.0, 125 mM NaCl, 0.01% Tween-20, 1 mM DTT) with 22.5% PEG 3350, 1 h at 30 °C; excitation 400 nm, ratio R of emission at 530 nm/485 nm.

The source of these data is article PMC9720572, “Macromolecular crowding amplifies allosteric regulation of T-cell protein tyrosine phosphatase” (The Journal of Biological Chemistry, 2022).

Substitutions are numbered along the chain they refer to.

B1: TC45^E/A (TC45 with 378KRKRPR383 mutated into 378EAAAPE383), fused at both termini to CFP (CFP-TC45^E/A-CFP) or to YFP (YFP-TC45^E/A-YFP), bacterially expressed (enzyme, UniProt P17706-2 1-387, looked up)
chain: MPTTIEREFEELDTQRRWQPLYLEIRNESHDYPHRVAKFPENRNRNRYRDVSPYDHSRVKLQNAENDYINASLVDIEEAQRSYILTQGPLPNTCCHFWLMVWQQKTKAVVMLNRIVEKESVKCAQYWPTDDQEMLFKETGFSVKLLSEDVKSYYTVHLLQLENINSGETRTISHFHYTTWPDFGVPESPASFLNFLFKVRESGSLNPDHGPAVIHCSAGIGRSGTFSLVDTCLVLMEKGDDINIKQVLLNMRKYRMGLIQTPDQLRFSYMAIIEGAKCIKGDSSIQKRWKELSKEDLSPAFDHSPNKIMTEKYNGNRIGLEEEKLTGDRCTGLSSKMQDTMEENSESALRKRIREDRKATTAQKVQQMKQRLNENEREAAAPELTDT
notes: The His6 tag and its thrombin cleavage are described in general for the pET28 constructs and the purification; also called C-EA-C; Y-EA-Y; not shown: His6, N-terminal, cleaved; CFP (one copy) or YFP (the other copy), N-terminal, kept; CFP (one copy) or YFP (the other copy), C-terminal, kept
As to B1, the binding result is reported as “binds”.

B2: T-cell protein tyrosine phosphatase, 45 kDa form (TC45), wild type, fused at both termini to CFP (CFP-TC45-CFP) or to YFP (YFP-TC45-YFP), bacterially expressed (enzyme, UniProt P17706-2 1-387, looked up)
chain: B1 chain with E378K, A379R, A380K, A381R, E383R
notes: T-cell protein tyrosine phosphatase (TC-PTP, encoded by PTPN2), 45 kDa form TC45, full-length ORF; the printed residues 377RKRKRPR383 near the C terminus fit the 387-residue TC45 isoform; Self-association was tested with an equimolar mixture of two differently labelled copies: CFP-TC45-CFP and YFP-TC45-YFP; The His6 tag and its thrombin cleavage are described in general for the pET28 constructs …
Regarding B2, the binding result is listed as “binds”.
